Experimental data from the supplement of paper PMC9942255.
Where “and” joins values, the source holds several entries; their conditions need not be identical. Equal entries are not always repeated.

Test system: Bacillus subtilis DB104 (SP-AmyQ fusion secretion)
Assay: AmyQ secretion efficiency, weighted average sort bin (1 = best secretion, 10 = worst) (bin number (weighted average, 1-10)); higher = lower secretion efficiency
In short: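 The secretion score gives the average bin number weighted by read frequency and normalised to beads per bin, with low-abundance sequences excluded. Bins were 10 equally populated green/red fluorescence ratio fractions of occupied ~65 nL alginate beads, sorted by large-particle flow cytometry. The beads held fluorescein-starch and about 0.3 cells each of an amyE-integrated B. subtilis DB104 library fusing designed signal peptides to mature AmyQ, and they were grown about 13 h at room temperature and stained with nile red before sorting and Illumina sequencing.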

Row | Sequence | AmyQ secretion efficiency
1 | MRGKSAVLLSLIMLIAGFLISFYFQM | 7.22
2 | MRGKSAVLLSLIMLIAGFLITASFPTVTGPPFSFSFQM | 8.88
3 | MRGKSAVLLSLIMLIAGFLIWFSFQM | 7.55
4 | MRGKSAVLLSLIMLIAGFLIYFSFQM | 8.11
5 | MRGKSAVLLSLIMLIAGFLQQSFSFQM | 7.38
6 | MRGKSIAVLLSLIMLIAGFLISFSFQM | 5.87
7 | MRGKSSTRKSLIMLIAGFLISFSFQM | 7.08
8 | MRGTSVVGFLSVLGLAAVFPLTAQAEKA | 2.91
9 | MRHKIIGRYQTSSGQIIIGNMIGGGGGSEATSK | 7.7
10 | MRHKIITFILAVVVIIIIGNMIGGGGGQEATSK | 6.41
11 | MRHKIITFILAVVVIIIIGNMIGGGGGSEAEDD | 6.34
12 | MRHKIITFILAVVVIIIIGNMIGGGGGSEATSE | 3.29
13 | MRHKIITFILAVVVIIIIGNMIGGGGGSEATSH | 5.06
14 | MRHKIITFILAVVVIIIIGNMIGGGGGSEATSK | 5.87
15 | MRHKIITFILAVVVIIIIGNMIGGGGGSEETSK | 7.2
16 | MRHKIITFILAVVVIIIIRKRKKRRGGSEATSK | 4.98
17 | MRHKSITFILAVVVIIIIGNMIGGGGGSEATSK | 6.79
18 | MRIFKKARKKRRKSFLIATVNVNTAHAAID | 6.58
19 | MRIFKKAVFVIMISFLIARRRKKRAHAAID | 8.88
20 | MRIFKKAVFVIMISFLIATVNVNTAHAAEE | 1.56
21 | MRIFKKAVFVIMISFLIATVNVNTAHAAID | 3.53 and 3.56 and 3.38
22 | MRIFKKAVFVIMISFLIATVNVNTAHAAIG | 1.03
23 | MRIFKKAVFVIMISFLIATVNVNTAHAEDD | 3.86
24 | MRIFKKAVFVIMISFLIATVNVNTAHAKKR | 2.09
25 | MRIFKKAVFVIMISFLIATVNVNTAHGAID | 5.43

Row | Sequence | AmyQ secretion efficiency
26 | MRIFKKAVFVIMISFLIATVNVNTAHIAID | 6.89
27 | MRIFKKAVFVIMISFLIATVNVNTCHAAID | 3.94
28 | MRIFKKTYSQQGQTFLIATVNVNTAHAAID | 8.8
29 | MRIKQCVICLSLLVFGTTAAHAEET | 2.98
30 | MRKAVFVIMISFLIATVNVNTAHAAID | 3.36
31 | MRKAVLLSLIMLIAGFLISFSFQM | 7.21
32 | MRKFLKSNFRFLLAAALGISLLASSNFIKASND | 4.13
33 | MRKFLLAAALGISLLASSNFIKASND | 4.88
34 | MRKIIGWILLLCIIPLFAFTVIASGKEV | 7.63
35 | MRKILALFVLSLGLLSFMVTPVSAASK | 1.58
36 | MRKILLSSALSLGMLVSAAPVLATSS | 1.66
37 | MRKKCKVCLWILVLLLSCLSGKSAYAATS | 2.26
38 | MRKKCSKCKWSTTSLLSCLSGKSAYAATS | 7.94
39 | MRKKCSSMSFTSVCLWILVLLLSCLSGKSAYAATS | 3
40 | MRKKCSTCQWRLVLLLSCLSGKSAYAATS | 5.76
41 | MRKKCSTCRWILVLLLSCLSGKSAYAATS | 5.49
42 | MRKKCSVCKKRRKRLLSCLSGKSAYAATS | 7.64
43 | MRKKCSVCKRILVLLLSCLSGKSAYAATS | 7.44
44 | MRKKCSVCLWILVLLLSCDSGKSAYAATS | 3.15
45 | MRKKCSVCLWILVLLLSCKKRKKRAYAATS | 6.88
46 | MRKKCSVCLWILVLLLSCKRGKSAYAATS | 6.83
47 | MRKKCSVCRRKKVLLLSCLSGKSAYAATS | 7.48
48 | MRKKHKTISLLIIFLLASAVLAKPIEAHTV | 2.55
49 | MRKKHQTISLLIIFLLASAVLAKPIEAHTV | 2.69
50 | MRKKIKVLTMCFLGLILFVPTALADNS | 1.88

Row | Sequence | AmyQ secretion efficiency
51 | MRKKKLWISLLFALTLIFTMAFSNMSAQAAGK | 2.97
52 | MRKKKRHSRLIVLLFFSFFGVQPIHAKKQ | 7.01
53 | MRKKKRKLLLATSALTFSLSLVLPLDGHAKAQEV | 2.13
54 | MRKKKRRVLLLLVTGLFMSLFAVTATASAQTG | 1.06
55 | MRKKKWMVGLLAGCLAAGGFSYNAFATEN | 3.58
56 | MRKKKWRVGLLAGCLAAGGFSYNAFATEN | 5.68
57 | MRKKLKWLSFKRRRKRLLFLFKYQFSNNDS | 8.72
58 | MRKKLKWLSFLLGFIILLFLFDEEEDDFSNNDS | 5.38
59 | MRKKLKWLSFLLGFIILLFLFFFIALIVLAKYQFSNNDS | 6.41
60 | MRKKLKWLSFLLGFIILLFLFKKKFSNNDS | 7.77
61 | MRKKLKWLSFLLGFIILLFLFKKRKKRFSNNDS | 7.3
62 | MRKKLKWLSFLLGFIILLFLFKYQASNNDS | 7.34
63 | MRKKLKWLSFLLGFIILLFLFKYQFSFNDS | 6.3
64 | MRKKLKWLSFLLGFIILLFLFKYQFSNNKR | 5.8
65 | MRKKLKWLSFLLGFIILLFLFKYQFSPNDS | 6.63
66 | MRKKLKWLSFLLGFIILLFLFKYQFSQNDS | 8.41
67 | MRKKLKWLSFLLGFIILLFLFKYQFSSNDS | 5.44
68 | MRKKLKWLSFLLGFIILLFLFKYQGSNNDS | 5.93
69 | MRKKLKWLSFLLGFIILLFLFKYQPSNNDS | 7.17
70 | MRKKLKWLSFLLGFIILLFLFKYQQSNNDS | 6.25
71 | MRKKLKWLSFLLGFIILLFLFKYQRSNNDS | 7.7
72 | MRKKLKWLSFLLGFIILLFLFKYQSSNNDS | 6.36
73 | MRKKLKWLSFLLGFIILLFLFTFGFSNNDS | 5.5
74 | MRKKLKWLSFLLGFIILLFLFTLTILKYQFSNNDS | 7.28
75 | MRKKLKWLSFRRRRIILLFLFKYQFSNNDS | 7.16

Row | Sequence | AmyQ secretion efficiency
76 | MRKKLKWLSTGTGGTYTQFLFKYQFSNNDS | 7.11
77 | MRKKLKWLSTLLGFIILLFLFKYQFSNNDS | 5.35
78 | MRKKRAVLLSLIMLIAGFLISFSFQM | 7.34
79 | MRKKRGYRCGMAASLTLGSLLPAGYASAKED | 6.63
80 | MRKKRLLAGALTATVLFGTCAVDVPGIISPKTAEAASQ | 1.23
81 | MRKKRLLTIYIMLLGLIAWFPGAAQAEEK | 3.47
82 | MRKKRMIMMVITCVMAASLTLGSLLPAGYASAKED | 3.07
83 | MRKKRNVITCVMAASLTLGSLLPAGYASAKED | 3.03
84 | MRKKRQVCLWILVLLLSCLSGKSAYAATS | 2.64
85 | MRKKRRRSLITLGLASVIGTSSFLIPFTSKTASAETL | 1.75
86 | MRKKRRRVITCVMAASLTLGSLLPAGYATAKED | 3.9
87 | MRKKRTIFAFLTGLMMFGTITAASASPD | 4.56
88 | MRKKRTSNFNMIVITCVMAASLTLGSLLPAGYATAKED | 3.08
89 | MRKKRTVITCVMAASLTLGSLLPAGYATAKED | 6.07
90 | MRKKRVILAAFILVGSTLGAFSFSSDASAKHV | 2.62
91 | MRKKRVITCVMAASLTLGPAGYASAKED | 3.6
92 | MRKKRVITCVMAASLTLGPAGYATAKED | 2.6
93 | MRKKRVITCVMAASLTLGSLLAAAIASAKED | 5.2
94 | MRKKRVITCVMAASLTLGSLLAAAIATAKED | 3.82
95 | MRKKRVITCVMAASLTLGSLLPAGYASAADD | 5.09
96 | MRKKRVITCVMAASLTLGSLLPAGYASAAPS | 2.5
97 | MRKKRVITCVMAASLTLGSLLPAGYASAASD | 1.13
98 | MRKKRVITCVMAASLTLGSLLPAGYASFKED | 3.82
99 | MRKKRVITCVMAASLTLGSLLPAGYASGKED | 3.86
100 | MRKKRVITCVMAASLTLGSLLPAGYASTKED | 2.82

Row | Sequence | AmyQ secretion efficiency
101 | MRKKRVITCVMAASLTLGSLLPAGYATAAPR | 1.69
102 | MRKKRVITCVMAASLTLGSLLPAGYATAATP | 2.04
103 | MRKKRVITCVMAASLTLGSLLPAGYATADDE | 4.08
104 | MRKKRVITCVMAASLTLGSLLPAGYATAKKR | 2.88
105 | MRKKRVITCVMAASLTLGSLLPAGYCSAKED | 3.36
106 | MRKKRVITCVMAASLTLGSLLPAGYCTAKED | 3.9
107 | MRKKRVITCVMAASLTLGSLLPAGYLSAKED | 4.34
108 | MRKKRVITCVMAASLTLGSLLPAGYMSAKED | 2.67
109 | MRKKRVITCVMAASLTLGSLLPAGYSSAKED | 3.75
110 | MRKKRVITCVMAASLTLGSLLPAGYVSAKED | 3.76
111 | MRKKRVITCVMAASLTLGSLLPAGYVTAKED | 2.51
112 | MRKKRVITCVMAASLTLGSLLRKRKKRASAKED | 6.48
113 | MRKKRVITCVMAASLTLGSLLSPAGYASAKED | 3.22
114 | MRKKRVITCVMAASLTLGSLLTAVTASAKED | 3.16
115 | MRKKRVITCVMAASPAGYASAKED | 7.41
116 | MRKKRVITCVMAASPAGYATAKED | 7.65
117 | MRKKRVKRCKKKRSLTLGSLLPAGYASAKED | 7.22
118 | MRKKRVKRCVMAASLTLGSLLPAGYASAKED | 3.34
119 | MRKKRVRKCKKAASLTLGSLLPAGYASAKED | 7.62
120 | MRKKRYGKCRQGSSLTLGSLLPAGYATAKED | 8.17
121 | MRKKTKNRLISSQKSTVVISSLLFPGAAGASSK | 8.12
122 | MRKKTKNRLISSVLFMVVIMILLFSPGAAGASSK | 1.52
123 | MRKKTKNRLISSVLSTVVISSLLFAPGAAGASSK | 2.22
124 | MRKKTKNRLISSVLSTVVISSLLFKRKAGASSK | 7.11
125 | MRKKTKNRLISSVLSTVVISSLLFPGAAFAGASSK | 1.5
